Experimental data from patent publication US20180105596A1 (ELSALYS BIOTECH, published 2018).
Where a chain is given by its changes, count along the chain named. Blank lines part the entries; values can stand above or below the binder they belong to.

Assays:
[1] = biological target: T1, Ig-1 and Ig-2 domains fragment of human Tyro3 ECD, His-Strep tagged (human); test: sandwich ELISA, Strep-tagged fragment captured on StrepMAB plate, scFv 10 µg/mL (Table 17), anti-FLAG-HRP
T1 construct: also called Ig1-Ig2 fragment
T1 chain: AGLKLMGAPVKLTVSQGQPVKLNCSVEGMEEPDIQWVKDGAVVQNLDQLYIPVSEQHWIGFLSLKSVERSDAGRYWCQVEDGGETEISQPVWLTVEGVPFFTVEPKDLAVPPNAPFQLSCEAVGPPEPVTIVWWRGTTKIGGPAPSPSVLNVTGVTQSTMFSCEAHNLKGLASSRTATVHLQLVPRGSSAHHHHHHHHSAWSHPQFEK

[2] = biological target: T2, Ig-1 domain fragment of human Tyro3 ECD, His-Strep tagged (human); test: as above
T2 chain: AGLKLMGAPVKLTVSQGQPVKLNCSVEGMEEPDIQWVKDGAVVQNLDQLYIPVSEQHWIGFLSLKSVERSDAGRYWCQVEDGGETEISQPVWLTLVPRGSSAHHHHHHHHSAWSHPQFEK

[3] = biological target: T3, Tyro3 ECD FNIII 1-FNIII-2; test: as above
T3 construct: also called FNIII 1 + FNIII 2 fragment of hTyro3 ECD, His-Strep tagged
T3 fragment: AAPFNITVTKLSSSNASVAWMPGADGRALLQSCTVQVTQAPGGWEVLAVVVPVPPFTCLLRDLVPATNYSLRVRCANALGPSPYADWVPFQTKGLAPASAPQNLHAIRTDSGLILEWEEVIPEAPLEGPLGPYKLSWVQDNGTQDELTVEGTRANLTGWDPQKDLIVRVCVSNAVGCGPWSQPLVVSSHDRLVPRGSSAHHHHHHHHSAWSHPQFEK

Tyro3 ECD Ig2-FNIII 1 = biological target: T4, Tyro3 ECD Ig2-FNIII 1; test: as above
T4 construct: also called Ig2 + FNIII 1 fragment of hTyro3 ECD, His-Strep tagged
T4 fragment: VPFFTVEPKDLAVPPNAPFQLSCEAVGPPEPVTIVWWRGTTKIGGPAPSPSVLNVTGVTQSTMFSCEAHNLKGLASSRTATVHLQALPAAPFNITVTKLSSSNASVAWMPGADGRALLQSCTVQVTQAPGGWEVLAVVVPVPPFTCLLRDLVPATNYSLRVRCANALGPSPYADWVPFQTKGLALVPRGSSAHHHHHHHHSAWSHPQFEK

[4] = biological target: T5, extracellular domain of human Axl, Fc fusion (R&D Systems 154-AL-100) (human, UniProt P30530 26-451); test: ELISA, ECD coated 1 µg/well, scFv 1 µg/mL, anti-tag-HRP
T5 construct: Bought protein; also called hAxl; hAXL; not shown: Fc of the bought ECD-Fc fusion
T5 sequence: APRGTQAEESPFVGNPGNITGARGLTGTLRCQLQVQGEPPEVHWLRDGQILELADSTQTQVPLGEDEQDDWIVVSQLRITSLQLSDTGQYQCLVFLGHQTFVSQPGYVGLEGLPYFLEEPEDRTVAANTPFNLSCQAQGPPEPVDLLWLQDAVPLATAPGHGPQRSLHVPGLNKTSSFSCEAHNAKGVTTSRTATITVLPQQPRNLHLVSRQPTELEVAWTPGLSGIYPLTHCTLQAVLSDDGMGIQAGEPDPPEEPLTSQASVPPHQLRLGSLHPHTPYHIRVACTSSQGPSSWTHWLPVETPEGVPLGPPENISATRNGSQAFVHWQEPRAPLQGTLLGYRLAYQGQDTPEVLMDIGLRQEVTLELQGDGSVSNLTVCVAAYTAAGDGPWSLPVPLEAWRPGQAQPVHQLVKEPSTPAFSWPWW
Experimental: (§1) Extracellular domains of hTyro 3 (859-DK-100), hAxl (154-AL-100) or hMer (891-MR-100) from R&D Systems were coated onto 96-wells microtiter plates (1 μg/well) in PBS and incubated overnight at 4° C. Plates were washed three times with PBS and blocked in PBS/3% BSA for 1 hour at RT. Plates were washed as above and scFvs were added at 1 μg/mL (diluted in PBS) and incubated for 1 hour at RT. Plates were washed three times with PBST (PBS/0.01% Tween-20) and secondary antibody anti-FLAG-HRP was added (Abcam, ab49763, 1/5000 dilution in blocking buffer) for 1 hour at RT. Plates were washed as above with PBST and signal was developed with Ultra-TMB reagent (Thermo Scientific, 34028).

[5] = biological target: T6, extracellular domain of human Mer, Fc fusion (R&D Systems 891-MR-100) (human, UniProt Q12866 21-505); test: as above
T6 construct: Bought protein; also called hMer; hMER; not shown: Fc of the bought ECD-Fc fusion
T6 sequence: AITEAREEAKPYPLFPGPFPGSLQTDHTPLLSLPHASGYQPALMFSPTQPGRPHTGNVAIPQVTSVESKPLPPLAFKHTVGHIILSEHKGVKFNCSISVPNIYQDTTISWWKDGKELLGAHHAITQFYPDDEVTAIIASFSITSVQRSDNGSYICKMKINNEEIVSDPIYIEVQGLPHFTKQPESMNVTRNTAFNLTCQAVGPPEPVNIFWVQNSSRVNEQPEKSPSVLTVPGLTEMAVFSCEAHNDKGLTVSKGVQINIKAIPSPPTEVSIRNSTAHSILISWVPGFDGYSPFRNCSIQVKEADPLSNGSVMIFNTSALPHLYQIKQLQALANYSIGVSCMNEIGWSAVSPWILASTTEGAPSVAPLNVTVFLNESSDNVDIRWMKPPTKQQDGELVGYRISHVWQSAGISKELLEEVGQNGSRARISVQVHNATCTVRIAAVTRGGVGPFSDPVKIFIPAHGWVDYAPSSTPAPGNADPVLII
Experimental: as §1

hTyro 3-ECD = biological target: T7, hTyro 3-ECD; test: as above
T7 construct: not the His-Strep tagged ECD m13; also called Recombinant Human Dtk-Fc Chimera (R&D Systems 859-DK-100); not shown: Human Fc, and any linker, of the commercial chimera (R&D Systems 859-DK-100)
T7 chain: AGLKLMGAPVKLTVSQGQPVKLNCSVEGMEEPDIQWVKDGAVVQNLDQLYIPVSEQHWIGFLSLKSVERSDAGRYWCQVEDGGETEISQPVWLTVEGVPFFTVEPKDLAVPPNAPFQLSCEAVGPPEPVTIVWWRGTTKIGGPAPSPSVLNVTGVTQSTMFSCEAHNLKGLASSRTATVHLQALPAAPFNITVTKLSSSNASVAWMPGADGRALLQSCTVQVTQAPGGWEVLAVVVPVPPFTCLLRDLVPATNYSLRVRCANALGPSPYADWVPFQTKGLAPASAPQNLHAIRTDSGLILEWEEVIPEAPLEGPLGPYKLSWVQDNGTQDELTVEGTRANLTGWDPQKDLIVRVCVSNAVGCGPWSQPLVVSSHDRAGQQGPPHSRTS
Experimental: as §1

[6] = biological target: T8, recombinant His-Strep tagged human Tyro3 extracellular domain (human, UniProt Q06418 41-429); test: sandwich ELISA, Strep-tagged hTyro3 ECD captured on StrepMAB plate, IgG 3-fold from 3 µg/mL, anti-human IgG1-HRP
T8 construct: also called hTyro3 ECD; full Tyro3 ECD
T8 sequence: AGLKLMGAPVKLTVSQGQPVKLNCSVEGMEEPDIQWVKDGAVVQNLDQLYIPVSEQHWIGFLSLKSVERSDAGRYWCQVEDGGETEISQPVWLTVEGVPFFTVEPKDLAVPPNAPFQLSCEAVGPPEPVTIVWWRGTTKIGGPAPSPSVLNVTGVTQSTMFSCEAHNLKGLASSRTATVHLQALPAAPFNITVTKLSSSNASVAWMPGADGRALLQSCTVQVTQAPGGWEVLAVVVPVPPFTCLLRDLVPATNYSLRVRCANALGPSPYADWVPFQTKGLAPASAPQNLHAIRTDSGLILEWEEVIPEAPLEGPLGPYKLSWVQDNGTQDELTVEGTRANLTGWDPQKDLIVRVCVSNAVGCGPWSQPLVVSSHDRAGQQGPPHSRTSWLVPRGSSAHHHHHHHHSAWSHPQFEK
Experimental: (§2) A double sandwich ELISA was developed. This assay consisted in measuring the binding of the anti-Tyro3 antibodies to be tested on immobilized strep-tagged entire human Tyro3 ECD captured directly on ELISA plate pre-coated with an anti-strep mAb (StrepMAB-Immo coated microplates from IBA biotech). Briefly, the 96 wells of StrepMAB-Immo coated microplate were washed three times with 300 μL of the PBS Tween 0.2% (referred as ELISA washing solution). The capture of an excess of purified strep tagged hTyro3 ECD protein was achieved by a one hour incubation at room temperature. In these experiments, 3 μg of purified protein diluted in PBS, BSA 1% (referred as ELISA diluent solution) were immobilized per well. The wells were washed three times with 300 μL of the washing solution. The non-specific binding sites on the well surface were blocked during 60 min at room temperature with 200 μL/well of blocking solution (PBS, BSA 3%). The wells were washed five times with 300 μL of the washing solution. Then, 100 μl (in duplicates) of the different concentrations of anti-Tyro3 antibodies to be tested diluted in ELISA diluent solution, were added per well and allowed to incubate during 1 hour at room temperature. An Irrelevant control IgG2656 was also added in this experiment. For anti-Tyro3 antibodies in the ScFv format, experiments were performed with 6 concentrations in duplicates (FIG. 3A). For anti-Tyro3 antibodies in the IgG format, experiments were performed with 9 concentrations in duplicates (FIG. 3B). […] For IgGs experiments, starting concentration for first dilution was 3 μg/ml and then dilutions of 3 fold in the ELISA diluent solution were performed. The wells were washed five times with 300 μL of the washing solution. […] The mix was allowed to incubated 60 min at room temperature.

[7] = biological target: T9, cynomolgus Tyro3 ECD, His-Strep tagged; test: sandwich ELISA, Strep-tagged cynomolgus Tyro3 ECD captured on StrepMAB plate, IgG 3-fold from 3 µg/mL, anti-human IgG1-HRP
T9 construct: also called cyno TYRO3 ECD 8hisstrep
T9 extracellular domain: T8 sequence with V67A, I191V, A309G, R376H
Experimental: [The procedure below names another species; the source lists this species under the same test.] as §2

binding result [1]: binds
binding result [2]: binds
binding result [3]: no binding (tested: 10 µg/mL)
binding result (Tyro3 ECD Ig2-FNIII 1): binds
binding result [4]: no binding (tested: 1 µg/mL)
binding result [5]: no binding (tested: 1 µg/mL)
binding result (hTyro 3-ECD): binds
B1: anti-Tyro3 scFv 2413 (scFv, V domains shown)
VH: EVQLVQSGADVKKPGASLTISCQASGYTFTDYWISWVRQKPGKGLEWMGRIHTYQSSTRYGPSFQGHVTISADRSTATAYLQWRSLEASDTAMYYCVRHHSTTTANPYSSWGPGTLVTVSS
VL: SYELTQPPSVSVSPGQTARITCSGDALPKKYAYWYQQKSGQAPVLVIYEDDKRLSGIPERFSGSSSGTMATLTISGAQVEDEADYYCYSTEINGNYAVFGGGTKLTVL
notes: Tested as a single-chain Fv made in E. coli

binding result [1]: no binding (tested: 10 µg/mL)
binding result [2]: no binding (tested: 10 µg/mL)
binding result [3]: binds
binding result (Tyro3 ECD Ig2-FNIII 1): binds
binding result [4]: no binding (tested: 1 µg/mL)
binding result [5]: no binding (tested: 1 µg/mL)
binding result (hTyro 3-ECD): binds
B2: anti-Tyro3 scFv 2718 (scFv, V domains shown)
VH: EVQLVQSGADVKKPGASLTISCQASGYTFTDYWISWVRQKPGKGLEWMGHINPMRSTTTYGPSFQGHVTISADRSTATAYLQWHSLEASDTAMYYCVRNDNHDDYTYTDDWGPGTLVTVSS
VL: B1 VL with D51T, L54H, T90A, I92H, N93R
notes: as for B1

binding result [1]: binds
binding result [2]: binds
binding result [3]: no binding (tested: 10 µg/mL)
binding result (Tyro3 ECD Ig2-FNIII 1): binds
binding result [4]: no binding (tested: 1 µg/mL)
binding result [5]: no binding (tested: 1 µg/mL)
binding result (hTyro 3-ECD): binds
B3: anti-Tyro3 scFv 2411 (scFv, V domains shown)
VH: EVQLVQSGADVKKPGASLTISCQASGYTFTDYWISWVRQKPGKGLEWMGSITRSSSRTHYGPSFQGHVTISADRSTATAYLQWRSLEASDTAMYYCVRGYTHLRTWGPGTLVTVSS
VL: B1 VL with D51S, L54S, T90A, E91N, I92Q, N93R, A97M
notes: as for B1

EC50 (read off the curve) [6]: ~0.02 µg/mL
EC50 (read off the curve) [7]: ~0.02 µg/mL
B4: IgG2411 (antibody, V domains shown)
VH: B3 VH
VL: B1 VL with D51S, L54S, T90A, E91N, I92Q, N93R, A97M
notes: also called IGX2411
